“Also recorded” adds a separate entry of the source.
Assays:
[1] = test system: endoplasmic reticulum stress signaling (DDIT3, ATF3, ATF4) in HCC70 cells; assay: qRT-PCR and immunofluorescence of endoplasmic reticulum stress markers in HCC70 cells; type: cell-based, human
Method: (§1) E0771 and HCC70 cells (1×10^5) were cultured for 24 hours in RPMI1640 medium with 10% FCS on Lab-Tek chamber slides (Thermo Fisher Scientific). The cultured cells were stimulated with Alexa Fluor 488 labeled IL-26 (30 ng/ml) in the presence or absence of recombinant human and mouse EphA3-Ig for 1 hour. HCC70 cells were stimulated with IL-26 (30 ng/ml) in the presence or absence of gefitinib (40 μM), a signal inhibitor, and a neutralizing antibody for 24 hours. Subcutaneous tumor samples obtained from mice were fixed in 4% paraformaldehyde (Thermo Fisher Scientific) and embedded in OCT compound (Tissue-Tek (registered trademark), Sakura Finetek, Japan). Cells and slides were immunostained with each antibody and observed using a Zeiss inverted microscope and Axiovision 2.0 program (Carl Zeiss, Germany). The fluorescence intensity was quantified with Image-J software (NIH). The images were captured using a 100×400× objective.
E0771 cells, HCC70 cells, and MDA-MB-468 cells were cultured in RPMI1640 medium containing 10% FCS on a 6-well plate (Corning), and then stimulated with IL-26 (30 ng/ml) in the presence or absence of gefitinib for 3, 6, or 12 hours. The cells were harvested and total RNA was extracted. cDNA was synthesized using PrimeScript II first-strand cDNA synthesis kit (TaKaRa Bio, Japan) and oligo (dT) primers. The mRNA levels were measured by 7500 System SDS software (Applied Biosystems, Foster City, CA) and normalized to hypoxanthine phosphoribosyltransferase expression levels.

[2] = test system: E0771 cells; assay: MTT assay / cell proliferation (confluence) assay, E0771; type: cell-based, mouse
Method: (§2) Human and mouse breast cancer cells (1×10^4) were cultured in 10% FCS containing RPMI1640 medium on a 96-well flat bottom plate (Corning, Tewksbury, MA) at 37° C. for 24 hours, and then stimulated with IL-26 for 48 hours in the presence or absence of EGFR-TKI (gefitinib or erlotinib) at various concentrations, a signal inhibitor, and a neutralizing antibody. HUVECs were seeded in a 96-well flat bottom plate at 5×10^3 cells/well in a 2% FBS-containing EGM medium in which growth factors were reduced by half, and cultured at 37° C. for 12 hours. Thereafter, the medium was aspirated, and a recombinant human IL-26 dimer was adjusted to a final concentration of 10 ng/mL in a 2% FBS-containing EGM medium containing no growth factors, and added to the cells. The stimulation was started in the presence or absence of control human IgG and anti-human IL-26 antibodies, and the cells were cultured for 48 hours. Thereafter, a concentration of 20 μl or 1/10 of a 5 mg/ml MTT solution (Tetrazolium monosodium salt, WST-8) was added to each well, and the plate was allowed to stand for 1 hour. The absorbance at 450 nm/595 nm was measured using Microplate Reader (Bio-Rad, Hercules, CA) and data was analyzed with Microplate Manager 6 software (Bio-Rad).
(§3) Human and mouse breast cancer cells (1×10^4) were cultured in RPMI1640 medium containing 10% FCS for 24 hours at 37° C. on a 96-well flat bottom plate (Corning), and then stimulated with IL-26 (30 ng/ml) in the presence or absence of various concentrations of gefitinib and a neutralizing antibody. Cell proliferation was measured as cell confluence using IncuCyte ZOOM (Essen Bioscience, Ann Arbor, MI).

[3] = test system: E0771 cells; assay: In vivo TNBC transplantation model (E0771 in hIL-26Tg or control mice); design: species or system mouse
Method: E0771 cells (5×10^5) with 50% Matrigel were injected subcutaneously into the flank of hIL-26Tg mice or control mice. Tumor measurements were performed using caliper and volume was calculated using an equation (v=width×width×(length/2)). gefitinib was suspended in H2O with 1% tween (registered trademark) 80 for oral administration (50 mg/kg). Ten days after injection of E0771 cells, the oral administration once a day was performed 5 times a week. As a control, 1% tween (registered trademark) 80 containing H2O without Gefiinib was administered. The monoclonal antibody (mAb) treatment was performed by diluting anti-IL-26 mAb (clone 69-10) (Hatano R et al., MAbs (2019) 1-15, and JP 2009-99492 A) or mouse IgG1 isotype control to 1 mg/ml with sterile PBS, and by intraperitoneal injection of 200 μl (200 μg) once a day twice a week starting on day 10 after E0771 cell injection. Mice were sacrificed until subcutaneous tumor size reached 1600 mm^3. E0771 and HCC70 cells (1×10^5) were cultured for 24 hours in RPMI1640 medium with 10% FCS on Lab-Tek chamber slides (Thermo Fisher Scientific). […] Subcutaneous tumor samples obtained from mice were fixed in 4% paraformaldehyde (Thermo Fisher Scientific) and embedded in OCT compound (Tissue-Tek (registered trademark), Sakura Finetek, Japan). Cells and slides were immunostained with each antibody and observed using a Zeiss inverted microscope and Axiovision 2.0 program (Carl Zeiss, Germany). The fluorescence intensity was quantified with Image-J software (NIH). The images were captured using a 100×400× objective.

[4] = test system: HCC70 cells; assay: MTT assay / cell proliferation (confluence) assay, HCC70; type: cell-based, human
Method: as §2, §3

[5] = test system: HCC70 cells; assay: JC-1 staining (mitochondrial membrane potential) of HCC70 cells; type: cell-based, human; conditions: 24 hours, FIG. 31
Method: Mitochondrial stability was evaluated using the mitochondrial membrane potential (ΔΨm) assay kit (Cayman Chemical, Ann Arbor, MI, USA) utilizing JC-1 staining. HCC70 cells (1×10^4 cells) were stimulated with IL-26 (30 ng/ml) in the presence or absence of gefitinib (40 μM), a signal inhibitor, and a neutralizing antibody in 96-well flat bottom plate (Corning) for 24 hours. […] Stained cells were quantified using Image-J software (NIH). Images were captured using a 40× objective.

[6] = target: T1, EphA3/IL-26 interaction (Homo sapiens, UniProt Q9NPH9); assay: Immunofluorescence of rhIL-26-Alexa 488 and cell surface EphA3 on E0771 cells; type: cell-based, mouse
T1 construct: purchased R&D Systems; host or cells: IL-26 was purchased; EphA3 is endogenous on E0771 cells
T1 sequence (Q9NPH9 22-171): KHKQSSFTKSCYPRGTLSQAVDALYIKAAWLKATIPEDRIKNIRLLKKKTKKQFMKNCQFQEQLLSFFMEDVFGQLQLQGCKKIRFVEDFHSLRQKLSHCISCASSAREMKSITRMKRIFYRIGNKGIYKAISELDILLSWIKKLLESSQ
Method: as §1

COc1cc2ncnc(Nc3ccc(F)c(Cl)c3)c2cc1OCCCN1CCOCC1 [gefitinib, Gefitinib, reference compound]
mRNA expression levels of IL-6, IL-8 and CXCL2, gefitinib treatment ([1]; HCC70, gefitinib 40 μM, 6 hours, FIG. 34): significantly increased
expression of DDIT3 at the protein level, gefitinib treatment ([1]; HCC70, gefitinib 40 μM, 24 hours, immunocytochemical staining, FIG. 30): marked increase
mRNA expression levels of DDIT3, ATF3 and ATF4, gefitinib treatment ([1]; HCC70, gefitinib 40 μM, FIG. 28): significantly increased
cell proliferation under gefitinib treatment ([2]; E0771, 48 hours, FIGS. 2A to 2C): suppressed
number of Ly6G+ granulocytes infiltrating TME ([3]; gefitinib-treated WT and hIL-26Tg mice compared to vehicle-treated, FIG. 40): significantly increased
phosphorylation of AKT in tumor cells ([3]; gefitinib-treated WT mice, tumor resected 14 days after inoculation, FIG. 41): strongly suppressed
phosphorylation of JNK in tumor cells ([3]; gefitinib-treated WT mice, tumor resected 14 days after inoculation, FIG. 42): strongly suppressed
tumor growth in hIL-26Tg mice ([3]; hIL-26Tg mice, gefitinib 50 mg/kg oral gavage, FIG. 35): tumor suppression by gefitinib was significantly inhibited
tumor growth in control mice ([3]; littermate control (WT) mice, gefitinib 50 mg/kg oral gavage once a day, five times a week, FIG. 35): suppressed
cell proliferation under gefitinib treatment ([4]; HCC70, 48 hours, FIGS. 3A to 3C): suppressed
mitochondrial activity, gefitinib treatment ([5]; HCC70, gefitinib 40 μM): significantly reduced mitochondrial activity

B1: 69-10: mouse anti-human IL-26 monoclonal antibody, clone 69-10, from deposited hybridoma (antibody, V domains shown)
VH: QVTLKESGPGILKPSQTLSLTCSFSGFSLSTSGMGVGWIRQPSGKGLEWLAHIWWDDDKYYNPSLKSQLTISKDTSRNQVFLKITSVDTADTATYYCVRGGITATHYYAMDYWGQGTSVTVSS
VL: DIQMTQSPASQSASLGESVTISCLASQTIGTWLSWYQQKPGKSPQLLIYAATSLADGVPSRFSGSGSGTKFSFKISSLQAEDFVSYYCQQLYSSPWTFGGGTKLEIK
inhibition of the decrease in expression of DDIT3 at the protein level by IL-26 together with gefitinib ([1]; HCC70, 24 hours, antibodies 50 μg/ml, FIG. 32 lower): significantly inhibited
inhibitory effect compared with anti-EphA3 pAb ([1]; HCC70 cells treated with gefitinib and IL-26): stronger than that of anti-EphA315 pAb
reversal of effect of IL-26 on gefitinib-induced DDIT3 expression and mitochondrial membrane depolarization ([1]; HCC70 cells treated with gefitinib and IL-26, FIGS. 32 and 33): reversed the effect of IL-26
inhibition of colocalization of IL-26 with EphA3 (EphA3/IL-26 interaction) ([6]; E0771, antibodies 10 μg/ml, FIGS. 19 and 20): significantly inhibited
reversal of inhibitory effect of IL-26 on gefitinib-induced suppression of cell proliferation (MTT) ([2]; E0771, IL-26 30 ng/ml, gefitinib 20 μM, antibody 20 μg/ml, 48 hours, FIG. 5D): reversed the inhibitory effect of IL-26 on gefitinib-induced suppression of cell proliferation
reversal of effect of IL-26 on gefitinib-induced suppression of cell proliferation (percent confluence) ([2]; E0771, gefitinib 15 μM and IL-26, antibody 10 μg/ml (mixture 2.5 μg/ml each), FIG. 11): reversed the effect of IL-26 on gefitinib-induced suppression of cell proliferation
tumor growth, anti-IL-26 mAb and gefitinib ([3]; hIL-26Tg mice, clone 69-10 200 μg/dose i.p. twice a week with gefitinib, compared to gefitinib alone, FIG. 36): significantly reduced
tumor growth, anti-IL-26 mAb alone ([3]; hIL-26Tg mice, not illustrated): no effect on tumor growth
reversal of inhibitory effect of IL-26 on gefitinib-induced suppression of cell proliferation ([4]; HCC70, IL-26 30 ng/ml, gefitinib 40 μM, 48 hours, MTT, FIG. 59): reversed the inhibitory effect of IL-26 on gefitinib-induced suppression of cell proliferation in an antibody dose-dependent manner

B2: IL-26: recombinant human IL-26 dimers for cell stimulation, R&D Systems (protein)
chain: T1 sequence (Q9NPH9 22-171)
mRNA expression levels of IL-6, IL-8 and CXCL2, IL-26 with gefitinib ([1]; HCC70, IL-26 30 ng/ml, gefitinib 40 μM, 6 hours, FIG. 34): significantly reduced
expression of DDIT3 at the protein level, IL-26 with gefitinib ([1]; HCC70, IL-26 30 ng/ml, gefitinib 40 μM, 24 hours, FIG. 30): significant decrease
mRNA expression levels of DDIT3, ATF3 and ATF4, IL-26 with gefitinib ([1]; HCC70, IL-26 30 ng/ml, gefitinib 40 μM, FIG. 28): clearly reduced
colocalization of exogenous IL-26 with cell surface EphA3 ([6]; E0771, FIGS. 17 and 18): colocalized with the cell surface EphA3
effect of exogenous IL-26 on inhibitory effect of erlotinib ([2]; E0771, IL-26 30 ng/ml, erlotinib 30 μM or 50 μM, 48 hours, MTT): inhibited the inhibitory effect of erlotinib on cell proliferation
effect of exogenous IL-26 on gefitinib-induced suppression of cell proliferation ([2]; E0771, IL-26 with gefitinib, 48 hours): significantly inhibited the cell proliferation suppression induced by gefitinib; also recorded: significantly suppressed in a dose-dependent manner
cell proliferation, IL-26 treatment alone ([2]; E0771, no gefitinib): did not affect cell proliferation
effect of exogenous IL-26 on inhibitory effect of erlotinib ([4]; HCC70, IL-26 30 ng/ml, erlotinib 30 μM or 50 μM, 48 hours, MTT): inhibited the inhibitory effect of erlotinib on cell proliferation
effect of exogenous IL-26 on gefitinib-induced suppression of cell proliferation ([4]; HCC70, IL-26 with gefitinib, 48 hours): significantly inhibited the cell proliferation suppression induced by gefitinib
mitochondrial activity, IL-26 with gefitinib ([5]; HCC70, IL-26 30 ng/ml, gefitinib 40 μM): significantly inhibited the reduction in mitochondrial activity
